{"source": "paper PMC6570770", "about": "“In situ structure and assembly of the multidrug efflux pump AcrAB-TolC” (Nature Communications, 2019)", "molecular_target": "the molecule itself", "assay": "cryo-EM structure"}
{"protein": "AcrA (periplasmic adaptor protein of the AcrAB-TolC multidrug efflux pump) (natural protein, also called periplasmic adaptor protein AcrA; source: E. coli BL21 (DE3), overexpressed from plasmid pAcBH (acrAB locus), in intact cells) CDDKQAQQGGQQMPAVGVVTVKTEPLQITTELPGRTSAYRIAEVRPQVSGIILKRNFKEGSDIEAGVSLYQIDPATYQATYDSAKGDLAKAQAAANIAQLTVNRYQKLLGTQYISKQEYDQALADAQQANAAVTAAKAAVETARINLAYTKVTSPISGRIGKSNVTEGALVQNGQATALATVQQLDPIYVDVTQSSNDFLRLKQELANGTLKQENGKAKVSLITSDGIKFPQDGTLEFSDVTVDQTTGSITLRAIFPNPDHTLLPGMFVRARLEEGLNPNAILVPQQGVTRTPRGDATVLVVGADDKVETRPIVASQAIGDKWLVTEGLKAGDRVVISGLQKVRPGVQVKAQEVTADNNQQAASGAQPEQSKS", "values": [{"measurement": "stoichiometry N", "value": 6}]}
